From US20240076406A1, “SINGLE DOMAIN ANTIBODIES TARGETING CA-IX AS WELL AS COMPOSITIONS COMPRISING SAME” (National Research Council of Canada, priority 2021, published 2024)

Assays:
[1] = molecular target: hCA-IX expressed on cells (SKRC52, SKRC59, 67NR^hCA-IX) (human) (UniProt Q16790); assay: plate-based cell binding assay, mean fluorescent intensity per cell area, SKRC52 (hCA-IX high) cells
[2] = molecular target: hCA-IX expressed on cells (SKRC52, SKRC59, 67NR^hCA-IX) (human) (UniProt Q16790); assay: Plate-based cell binding assay, one site specific binding fit; cell line not given

EC50 (read off the curve) [1]: 1 nM
Bmax (mean fluorescent intensity per cell area) [2]: 575
Kd [2]: 1.29 nM
Substance: cG250 full sized antibody (FSA)
